Measured values: publication doi:10.1101/329011v1

Tests used:
Settings in all cases: La3+ as metal cofactor; PQQ enzyme; artificial electron acceptor PMS/DCPIP
purified protein = substrate: C=O; assay: purified protein
[1] = substrate: CCO; assay: PMS-mediated DCPIP reduction, Michaelis-Menten fit; format: biochemical, Methylorubrum extorquens
[2] = substrate: CO; assay: PMS-mediated DCPIP reduction, Michaelis-Menten fit; format: biochemical, Methylorubrum extorquens

B1: XoxF1 MDH (XoxF1-La) (Methylorubrum extorquens AM1) (protein)
chain: NESVLKGVANPAEQVLQTVDYANTRYSKLDQINASNVKNLQVAWTFSTGVLRGHEGSPLVVGNIMYVHTPFPNIVYALDLDQGAKIVWKYEPKQDPSVIPVMCCDTVNRGLAYADGAILLHQADTTLVSLDAKSGKVNWSVKNGDPSKGETNTATVLPVKDKVIVGISGGEFGVQCHVTAYDLKSGKKVWRGYSIGPDDQLIVDPEKTTSLGKPIGKDSSLKTWEGDQWKTGGGCTWGWFSYDPKLDLMYYGSGNPSTWNPKQRPGDNKWSMTIWARNPDTGMAKWVYQMTPHDEWDFDGINEMILTDQKFDGKDRPLLTHFDRNGFGYTLDRATGEVLVAEKFDPVVNWATKVDLDKGSKTYGRPLVVSKYSTEQNGEDVNSKGICPAALGTKDQQPAAFSPKTGLFYVPTNHVCMDYEPFRVTYTPGQPYVGATLSMYPAPGSHGGMGNFIAWDNLQGKIKWSNPEQFSAWGGALATAGDVVFYGTLEGFLKAVDSKTGKELYKFKTPSGIIGNVMTYEHKGKQHVAVLSGVGGWAGIGLAAGLTDPNAGLGAVGGYAALSSYTNLGGQLTVFSLPNN
Purified protein
  Km: 96 µM
[1]
  Km: 639 µM
[2]
  Km: 44 µM
